B1: Protein SGT1 (Saccharomyces cerevisiae), Q08446 (parent)
chain: MPVEKDLKTAYKALYDEKEPLKALHLYDEILKGSPTNLTALIFKAACLEKLYFGFSDWHSDATMENAKELLDKALMTAEGRGDRSKIGLVNFRYFVHFFNIKDYELAQSYFKKAKNLGYVDDTLPLWEDRLETKLNKKNKKQKDSTNKHTIKPVESIENRGDNNSSHSPISPLKIETAPQESPKFKIDWYQSSTSVTISLFTVNLPESKEQVNIYISPNDRRTLSISYQVPKSGSEFQYNAKLSHEVDPKAVSLKIFPKKLEITLSKIDSTQWKKLEEDILTESSRLSDEGKNSDSATRLLSAETASKERLSYPSSSKKKIDWSKLDIDEEADEEAGSADSFFQKLYAGADPDTKRAMMKSFIESNGTALSTDWEDVSKGTVKTSPPEGMEPKHW

In the assay the parent is B1. As to conditions: with skp1_yeast SKP1, P52286.
Sequence of skp1_yeast SKP1, P52286 (P52286 whole entry): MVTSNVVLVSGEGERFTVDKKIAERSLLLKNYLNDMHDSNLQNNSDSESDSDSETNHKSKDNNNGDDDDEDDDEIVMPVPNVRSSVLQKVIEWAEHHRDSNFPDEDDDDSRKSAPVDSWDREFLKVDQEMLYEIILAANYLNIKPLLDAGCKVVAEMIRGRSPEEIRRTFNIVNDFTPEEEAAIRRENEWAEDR
For the variant T146S, the “effect of a mutation on the interaction” value is given as “decreasing interaction”.

The values are drawn from IntAct's records for PubMed 15090617.
